Experimental data as given in article PMC8247599 (Genes & Development, 2021).

Target: the molecule itself
Assay: crystal structure

B1: Khc^855–941 (domain or fragment)
chain: not shown
**Q.** Does B1 bind?
**A.** binds
